The text below walks through data of paper PMC3443293 (Nature structural & molecular biology, 2012).

The labels stand for the following.
B7: human nectin-1 ectodomain (D1-D3) (domain or fragment)
chain: QVVQVNDSMYGFIGTDVVLHCSFANPLPSVKITQVTWQKSTNGSKQNVAIYNPSMGVSVLAPYRERVEFLRPSFTDGTIRLSRLELEDEGVYICEFATFPTGNRESQLNLTVMAKPTNWIEGTQAVLRAKKGQDDKVLVATCTSANGKPPSVVSWETRLKGEAEYQEIRNPNGTVTVISRYRLVPSREAHQQSLACIVNYHMDRFKESLTLNVQYEPEVTIEGFDGNWYLQRMDVKLTCKADANPPATEYHWTTLNGSLPKGVEAQNRTLFFKGPINYSLAGTYICEATNPIGTRSGQVEVNITEFP
modifications: natively glycosylated (N-linked glycans)

Series [1] concerns the molecule itself. Kind of series: AUC.
Series [2] concerns the target B7. Kind of series: AUC.
Series [3] deals with the molecule itself. Kind of series: crystal structure.
Series [4] concerns the target human nectin-3 ectodomain (D1-D3) (human, UniProt Q9NQS3 58-359, natively glycosylated (N-linked glycans)). Kind of series: SPR.

B1: mouse nectin-2 ectodomain (D1-D3) (domain or fragment)
chain: QDVRVRVLPEVRGRLGGTVELPCHLLPPTTERVSQVTWQRLDGTVVAAFHPSFGVDFPNSQFSKDRLSFVRARPETNADLRDATLAFRGLRVEDEGNYTCEFATFPNGTRRGVTWLRVIAQPENHAEAQEVTIGPQSVAVARCVSTGGRPPARITWISSLGGEAKDTQEPGIQAGTVTIISRYSLVPVGRADGVKVTCRVEHESFEEPILLPVTLSVRYPPEVSISGYDDNWYLGRSEAILTCDVRSNPEPTDYDWSTTSGVFPASAVAQGSQLLVHSVDRMVNTTFICTATNAVGTGRAEQVILVRESP
modifications: natively glycosylated
B1: in series [1], the affinity, expressed as Kd, was 1.09 µM and the “stoichiometry N” value stood at 2.

B2: human nectin-4 ectodomain (D1-D3) (domain or fragment)
chain: GELETSDVVTVVLGQDAKLPCFYRGDSGEQVGQVAWARVDAGEGAQELALLHSKYGLHVSPAYEGRVEQPPPPRNPLDGSVLLRNAVQADEGEYECRVSTFPAGSFQARLRLRVLVPPLPSLNPGPALEEGQGLTLAASCTAEGSPAPSVTWDTEVKGTTSSRSFKHSRSAAVTSEFHLVPSRSMNGQPLTCVVSHPGLLQDQRITHILHVSFLAEASVRGLEDQNLWHIGREGAMLKCLSEGQPPPSYNWTRLDGPLPSGVRVDGDTLGFPPLTTEHSGIYVCHVSNEFSSRDSQVTVDVLDPQ
modifications: natively glycosylated
For the molecule B2, the binding result in series [2] was “binds”. Moreover, in series [1], the dissociation constant Kd came to 153 µM and the “stoichiometry N” value amounted to 2.

B3: mouse nectin-2 D1-2 fragment (domain or fragment)
chain: QDVRVRVLPEVRGRLGGTVELPCHLLPPTTERVSQVTWQRLDGTVVAAFHPSFGVDFPNSQFSKDRLSFVRARPETNADLRDATLAFRGLRVEDEGNYTCEFATFPNGTRRGVTWLRVIAQPENHAEAQEVTIGPQSVAVARCVSTGGRPPARITWISSLGGEAKDTQEPGIQAGTVTIISRYSLVPVGRADGVKVTCRVEHESFEEPILLPVTLSVRY
modifications: natively glycosylated (N-linked glycans)
On to B3, for which, in series [1], binding was characterised by a dissociation constant (Kd) of 7.62 µM and the “stoichiometry N” value came to 2.

B4: mouse nectin-4 ectodomain (D1-D3) (domain or fragment)
chain: GELETSDVVTVVLGQDAKLPCFYRGDPDEQVGQVAWARVDPNEGIRELALLHSKYGLHVNPAYEDRVEQPPPPRDPLDGSVLLRNAVQADEGEYECRVSTFPAGSFQARMRLRVLVPPLPSLNPGPPLEEGQGLTLAASCTAEGSPAPSVTWDTEVKGTQSSRSFTHPRSAAVTSEFHLVPSRSMNGQPLTCVVSHPGLLQDRRITHTLQVAFLAEASVRGLEDQNLWQVGREGATLKCLSEGQPPPKYNWTRLDGPLPSGVRVKGDTLGFPPLTTEHSGVYVCHVSNELSSRDSQVTVEVLDPEDPG
modifications: natively glycosylated
In the case of B4, in series [1], binding was put at a Kd of 278 µM and the “stoichiometry N” value was 2.

B5: human nectin-4 D1-2 fragment (domain or fragment)
chain: GELETSDVVTVVLGQDAKLPCFYRGDSGEQVGQVAWARVDAGEGAQELALLHSKYGLHVSPAYEGRVEQPPPPRNPLDGSVLLRNAVQADEGEYECRVSTFPAGSFQARLRLRVLVPPLPSLNPGPALEEGQGLTLAASCTAEGSPAPSVTWDTEVKGTTSSRSFKHSRSAAVTSEFHLVPSRSMNGQPLTCVVSHPGLLQDQRITHILHVS
B5: the binding result in series [3] is recorded as “binds”.

B6: human nectin-1 ectodomain (D1-D3) F129D (domain or fragment)
chain: QVVQVNDSMYGFIGTDVVLHCSFANPLPSVKITQVTWQKSTNGSKQNVAIYNPSMGVSVLAPYRERVEFLRPSFTDGTIRLSRLELEDEGVYICEFATDPTGNRESQLNLTVMAKPTNWIEGTQAVLRAKKGQDDKVLVATCTSANGKPPSVVSWETRLKGEAEYQEIRNPNGTVTVISRYRLVPSREAHQQSLACIVNYHMDRFKESLTLNVQYEPEVTIEGFDGNWYLQRMDVKLTCKADANPPATEYHWTTLNGSLPKGVEAQNRTLFFKGPINYSLAGTYICEATNPIGTRSGQVEVNITEFP
modifications: natively glycosylated
As for B6, in series [1], the affinity, expressed as Kd, was 820 µM and the “stoichiometry N” value was 2.
Take B7: the binding result in series [4] is on record as “binds”. Also, in series [1], the Kd is 17.5 µM and the “stoichiometry N” value worked out at 2.

B8: human nectin-2 ectodomain (D1-D3) (domain or fragment)
chain: QDVRVQVLPEVRGQLGGTVELPCHLLPPVPGLYISLVTWQRPDAPANHQNVAAFHPKMGPSFPSPKPGSERLSFVSAKQSTGQDTEAELQDATLALHGLTVEDEGNYTCEFATFPKGSVRGMTWLRVIAKPKNQAEAQKVTFSQDPTTVALCISKEGRPPARISWLSSLDWEAKETQVSGTLAGTVTVTSRFTLVPSGRADGVTVTCKVEHESFEEPALIPVTLSVRYPPEVSISGYDDNWYLGRTDATLSCDVRSNPEPTGYDWSTTSGTFPTSAVAQGSQLVIHAVDSLFNTTFVCTVTNAVGMGRAEQVIFVRETP
modifications: natively glycosylated
For B8, in series [4], the binding result is listed as “binds”. In series [1], the Kd turned out to be 0.392 µM and the “stoichiometry N” value was 2.

B9: mouse nectin-1 ectodomain (D1-D3) (domain or fragment)
chain: QVVQVNDSMYGFIGTDVVLHCSFANPLPSVKITQVTWQKASNGSKQNMAIYNPTMGVSVLPPYEKRVEFLRPSFIDGTIRLSGLELEDEGMYICEFATFPTGNRESQLNLTVMAKPTNWIEGTRAVLRARKGQDDKVLVATCTSANGKPPSAVSWETRLKGEAEYQEIRNPNGTVTVISRYRLVPSREAHRQSLACIVNYHLDRFRESLTLNVQYEPEVTIEGFDGNWYLQRTDVKLTCKADANPPATEYHWTTLNGSLPKGVEAQNRTLFFRGPITYSLAGTYICEATNPIGTRSGQVEVNITEFP
modifications: natively glycosylated
Turning to B9, in series [1], the affinity, expressed as Kd, was 22.6 µM and the “stoichiometry N” value worked out at 2.
